Source: the supplement of paper PMC9112550, “Optimization of the antimicrobial peptide Bac7 by deep mutational scanning” (BMC Biology, 2022)
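Further: peptides expressed intracellularly from a pBAD plasmid library in pooled LB shake-flask culture, induced with 0.3% L-arabinose, DNA abundance read by NGS, three biological replicates, DESeq2 with apeglm shrinkage.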

What follows are sequences tested on Escherichia coli TOP10 (assay: shrunken log2 fold change of peptide-encoding DNA abundance (4.5 h post-induction vs induction); higher = less antimicrobial activity (less host growth inhibition)). Conditions: time post-induction: 4.5 h; library: site-saturation at positions 5, 18, 19, 20.
RRIRRRPPRLPRPRPRPLLTPRP was tested, and the “shrunken log2 fold change” value was 0.399. RRIRRRPPRLPRPRPRPLMIPRP was tested, and the “shrunken log2 fold change” value was -0.258. RRIRRRPPRLPRPRPRPLNPPRP was tested, and the “shrunken log2 fold change” value was -0.00196. RRIRRRPPRLPRPRPRPLNVPRP was tested, and the “shrunken log2 fold change” value was -0.0701. In the case of RRIRRRPPRLPRPRPRPLPRPRP, the “shrunken log2 fold change” value is reported as 0.748. RRIRRRPPRLPRPRPRPLPVPRP was tested, and the “shrunken log2 fold change” value was 0.373. For RRIRRRPPRLPRPRPRPLQIPRP, the “shrunken log2 fold change” value was 0.0422. With RRIRRRPPRLPRPRPRPLQTPRP the “shrunken log2 fold change” value was 1.59. For RRIRRRPPRLPRPRPRPLRPPRP, the “shrunken log2 fold change” value was 1.18. In the case of RRIRRRPPRLPRPRPRPLSNPRP, the “shrunken log2 fold change” value is reported as -0.0853. With RRIRRRPPRLPRPRPRPLSPPRP the “shrunken log2 fold change” value was 0.411. For RRIRRRPPRLPRPRPRPLTIPRP, the “shrunken log2 fold change” value was -0.133. RRIRRRPPRLPRPRPRPLTLPRP was tested, and the “shrunken log2 fold change” value was -0.142. With RRIRRRPPRLPRPRPRPLWDPRP the “shrunken log2 fold change” value was 0.56. For RRIRRRPPRLPRPRPRPLWVPRP, the “shrunken log2 fold change” value was 0.382. In the case of RRIRRRPPRLPRPRPRPLYRPRP, the “shrunken log2 fold change” value is reported as -0.121. RRIRRRPPRLPRPRPRPMAAPRP was tested, and the “shrunken log2 fold change” value was 1.15. RRIRRRPPRLPRPRPRPMACPRP was tested, and the “shrunken log2 fold change” value was -0.0812. With RRIRRRPPRLPRPRPRPMCLPRP the “shrunken log2 fold change” value was 0.0511. In the case of RRIRRRPPRLPRPRPRPMCPPRP, the “shrunken log2 fold change” value is reported as -0.119. With RRIRRRPPRLPRPRPRPMCTPRP the “shrunken log2 fold change” value was 0.459. For RRIRRRPPRLPRPRPRPMFEPRP, the “shrunken log2 fold change” value was 0.266. In the case of RRIRRRPPRLPRPRPRPMFKPRP, the “shrunken log2 fold change” value is reported as 0.168. RRIRRRPPRLPRPRPRPMGDPRP was tested, and the “shrunken log2 fold change” value was -0.251. In the case of RRIRRRPPRLPRPRPRPMGVPRP, the “shrunken log2 fold change” value is reported as 0.324. In the case of RRIRRRPPRLPRPRPRPMIGPRP, the “shrunken log2 fold change” value is reported as -0.041. In the case of RRIRRRPPRLPRPRPRPMIQPRP, the “shrunken log2 fold change” value is reported as 0.107. For RRIRRRPPRLPRPRPRPMKSPRP, the “shrunken log2 fold change” value was 0.304. RRIRRRPPRLPRPRPRPMNRPRP was tested, and the “shrunken log2 fold change” value was -0.321. RRIRRRPPRLPRPRPRPMNYPRP was tested, and the “shrunken log2 fold change” value was -0.0341. With RRIRRRPPRLPRPRPRPMPRPRP the “shrunken log2 fold change” value was 0.811. RRIRRRPPRLPRPRPRPMQTPRP was tested, and the “shrunken log2 fold change” value was -0.00191. For RRIRRRPPRLPRPRPRPMQYPRP, the “shrunken log2 fold change” value was -0.126. RRIRRRPPRLPRPRPRPMSYPRP was tested, and the “shrunken log2 fold change” value was -0.0379. With RRIRRRPPRLPRPRPRPMTFPRP the “shrunken log2 fold change” value was 0.164. In the case of RRIRRRPPRLPRPRPRPMTSPRP, the “shrunken log2 fold change” value is reported as -0.00455. In the case of RRIRRRPPRLPRPRPRPMVDPRP, the “shrunken log2 fold change” value is reported as 0.0808. For RRIRRRPPRLPRPRPRPMYHPRP, the “shrunken log2 fold change” value was -0.159. For RRIRRRPPRLPRPRPRPNCRPRP, the “shrunken log2 fold change” value was 0.563. In the case of RRIRRRPPRLPRPRPRPNCWPRP, the “shrunken log2 fold change” value is reported as 0.228. RRIRRRPPRLPRPRPRPNDQPRP was tested, and the “shrunken log2 fold change” value was 0.261. In the case of RRIRRRPPRLPRPRPRPNHCPRP, the “shrunken log2 fold change” value is reported as -0.142. RRIRRRPPRLPRPRPRPNHDPRP was tested, and the “shrunken log2 fold change” value was 0.196. With RRIRRRPPRLPRPRPRPNIIPRP the “shrunken log2 fold change” value was -0.0888. In the case of RRIRRRPPRLPRPRPRPNKAPRP, the “shrunken log2 fold change” value is reported as 0.158. RRIRRRPPRLPRPRPRPNMPPRP was tested, and the “shrunken log2 fold change” value was -0.342. In the case of RRIRRRPPRLPRPRPRPNMVPRP, the “shrunken log2 fold change” value is reported as -0.0449. For RRIRRRPPRLPRPRPRPNMWPRP, the “shrunken log2 fold change” value was -0.253. RRIRRRPPRLPRPRPRPNNRPRP was tested, and the “shrunken log2 fold change” value was -0.0987. For RRIRRRPPRLPRPRPRPNNSPRP, the “shrunken log2 fold change” value was -0.356. In the case of RRIRRRPPRLPRPRPRPNNVPRP, the “shrunken log2 fold change” value is reported as -0.312. RRIRRRPPRLPRPRPRPNPFPRP was tested, and the “shrunken log2 fold change” value was 0.125. With RRIRRRPPRLPRPRPRPNPPPRP the “shrunken log2 fold change” value was 0.451. In the case of RRIRRRPPRLPRPRPRPNQGPRP, the “shrunken log2 fold change” value is reported as 0.134. With RRIRRRPPRLPRPRPRPNQHPRP the “shrunken log2 fold change” value was 0.00413. RRIRRRPPRLPRPRPRPNSMPRP was tested, and the “shrunken log2 fold change” value was -0.233. RRIRRRPPRLPRPRPRPNSTPRP was tested, and the “shrunken log2 fold change” value was -0.0128. In the case of RRIRRRPPRLPRPRPRPNTEPRP, the “shrunken log2 fold change” value is reported as 0.119. For RRIRRRPPRLPRPRPRPNTQPRP, the “shrunken log2 fold change” value was 0.0214. RRIRRRPPRLPRPRPRPNTRPRP was tested, and the “shrunken log2 fold change” value was 0.162. In the case of RRIRRRPPRLPRPRPRPNWDPRP, the “shrunken log2 fold change” value is reported as -0.0988. RRIRRRPPRLPRPRPRPNWVPRP was tested, and the “shrunken log2 fold change” value was 0.00352. In the case of RRIRRRPPRLPRPRPRPNYDPRP, the “shrunken log2 fold change” value is reported as -0.187. With RRIRRRPPRLPRPRPRPNYLPRP the “shrunken log2 fold change” value was 0.305. RRIRRRPPRLPRPRPRPPANPRP was tested, and the “shrunken log2 fold change” value was 0.731. For RRIRRRPPRLPRPRPRPPCSPRP, the “shrunken log2 fold change” value was 0.112. In the case of RRIRRRPPRLPRPRPRPPCTPRP, the “shrunken log2 fold change” value is reported as 1.59. For RRIRRRPPRLPRPRPRPPCYPRP, the “shrunken log2 fold change” value was 0.473. In the case of RRIRRRPPRLPRPRPRPPDQPRP, the “shrunken log2 fold change” value is reported as 0.764. For RRIRRRPPRLPRPRPRPPDSPRP, the “shrunken log2 fold change” value was 0.289. In the case of RRIRRRPPRLPRPRPRPPEEPRP, the “shrunken log2 fold change” value is reported as 1.37. For RRIRRRPPRLPRPRPRPPGMPRP, the “shrunken log2 fold change” value was 0.821. In the case of RRIRRRPPRLPRPRPRPPHMPRP, the “shrunken log2 fold change” value is reported as 1.11. RRIRRRPPRLPRPRPRPPHWPRP was tested, and the “shrunken log2 fold change” value was 0.932. RRIRRRPPRLPRPRPRPPIMPRP was tested, and the “shrunken log2 fold change” value was -0.0528. In the case of RRIRRRPPRLPRPRPRPPKCPRP, the “shrunken log2 fold change” value is reported as 0.423. RRIRRRPPRLPRPRPRPPLGPRP was tested, and the “shrunken log2 fold change” value was 0.998. RRIRRRPPRLPRPRPRPPLQPRP was tested, and the “shrunken log2 fold change” value was 0.682. In the case of RRIRRRPPRLPRPRPRPPRMPRP, the “shrunken log2 fold change” value is reported as 0.94. RRIRRRPPRLPRPRPRPPRTPRP was tested, and the “shrunken log2 fold change” value was 1.16. With RRIRRRPPRLPRPRPRPPTLPRP the “shrunken log2 fold change” value was 0.739. For RRIRRRPPRLPRPRPRPPVYPRP, the “shrunken log2 fold change” value was 0.32. RRIRRRPPRLPRPRPRPPWEPRP was tested, and the “shrunken log2 fold change” value was 0.0894. For RRIRRRPPRLPRPRPRPPWPPRP, the “shrunken log2 fold change” value was 0.667. For RRIRRRPPRLPRPRPRPPYYPRP, the “shrunken log2 fold change” value was 0.108. RRIRRRPPRLPRPRPRPQCNPRP was tested, and the “shrunken log2 fold change” value was 0.0615. For RRIRRRPPRLPRPRPRPQCTPRP, the “shrunken log2 fold change” value was -0.122. For RRIRRRPPRLPRPRPRPQDRPRP, the “shrunken log2 fold change” value was 0.0852. RRIRRRPPRLPRPRPRPQETPRP was tested, and the “shrunken log2 fold change” value was 0.00135. For RRIRRRPPRLPRPRPRPQHRPRP, the “shrunken log2 fold change” value was 0.266. For RRIRRRPPRLPRPRPRPQICPRP, the “shrunken log2 fold change” value was -0.0654. In the case of RRIRRRPPRLPRPRPRPQIHPRP, the “shrunken log2 fold change” value is reported as -0.515. For RRIRRRPPRLPRPRPRPQIYPRP, the “shrunken log2 fold change” value was -0.1. RRIRRRPPRLPRPRPRPQMDPRP was tested, and the “shrunken log2 fold change” value was -0.0632. For RRIRRRPPRLPRPRPRPQNGPRP, the “shrunken log2 fold change” value was -0.0551. With RRIRRRPPRLPRPRPRPQNPPRP the “shrunken log2 fold change” value was 0.214. For RRIRRRPPRLPRPRPRPQNYPRP, the “shrunken log2 fold change” value was -0.304. With RRIRRRPPRLPRPRPRPQPKPRP the “shrunken log2 fold change” value was 0.761. In the case of RRIRRRPPRLPRPRPRPQQDPRP, the “shrunken log2 fold change” value is reported as 0.0793. With RRIRRRPPRLPRPRPRPQQFPRP the “shrunken log2 fold change” value was 0.0492. For RRIRRRPPRLPRPRPRPQQVPRP, the “shrunken log2 fold change” value was -0.0275. In the case of RRIRRRPPRLPRPRPRPQRCPRP, the “shrunken log2 fold change” value is reported as 0.177. For RRIRRRPPRLPRPRPRPQRLPRP, the “shrunken log2 fold change” value was 0.124. For RRIRRRPPRLPRPRPRPQSFPRP, the “shrunken log2 fold change” value was 0.0366. For RRIRRRPPRLPRPRPRPQSYPRP, the “shrunken log2 fold change” value was -0.0292. RRIRRRPPRLPRPRPRPQTPPRP was tested, and the “shrunken log2 fold change” value was 0.881. For RRIRRRPPRLPRPRPRPQVPPRP, the “shrunken log2 fold change” value was 0.11. With RRIRRRPPRLPRPRPRPQWFPRP the “shrunken log2 fold change” value was -0.076. For RRIRRRPPRLPRPRPRPQWLPRP, the “shrunken log2 fold change” value was 0.431.
